Experimental data: the supplement of paper PMC7877785
± gives the uncertainty stated by the source.

Test: self-splicing fitness, log relative to wild type (ln ratio); higher = more splicing; Tetrahymena group I intron in knt gene, E. coli kanamycin selection, DiMSum; sequences stand for … in CUCUCU…GGAGGGAAAAGUUAUCAGGCAUGCACCUGGUAGCUAGUCUUUAAACCAAUAGAUUGCAUCGGUUUAAAAGGCAAGACCGUCAAAUUGCGGGAAAGGGGUCAACAGCCGUUCAGUACCAAGUCUCAGGGGAAACUUUGAGAUGGCCUUGCAAAGGGUAUGGUAAUAAGCUGACGGACAUGGUCCUAACCACGCAGCCAAGUCCUAAGUCAACAGAUCUUCUGUUGAUAUGGAUGCAGUUCACAGACUAAAUGUCGGUCGGGGAAGAUGUAUUCUUCUCAUAAGAUAUAGUCGGACCUCUCCUUAAUGGGAGCUAGCGGAUGAAGUGAUGCAACACUGGAGCCGCUGGGAACUAAUUUGUAUGCGAAAGUAUAUUGAUUAGUUUUGGAGUACUCGUGGUCG
Outline: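 Library with all eight P1ex-region intron nucleotides randomised, intron inside the knt kanamycin-resistance gene on pET-22b(+), in E. coli BL21(DE3). Cells grew overnight at 37°C or 30°C on LB agar with or without 25 μg/mL kanamycin (plus 100 μg/mL carbenicillin, 50 μM IPTG, 0.2% rhamnose), in six replicate transformations. Pooled colonies were amplicon-sequenced on Illumina HiSeq 2500. DiMSum fitness is the error-weighted combination of wild-type-normalised replicate fold changes, kanamycin versus none.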

Row | Sequence | self-splicing fitness (ln) (30 °C) | self-splicing fitness (ln) (37 °C)
1 | CGUAAGCAAUAUUACGGUGU | -4.11 ± 0.25 | -3.24 ± 0.21
2 | CGUAAGCAAUAUUACGUACA | -1.59 ± 0.13 | -0.137 ± 0.13
3 | CGUAAGCAAUAUUACGUCGA | -2.94 ± 0.21 | -3.07 ± 0.2
4 | CGUAAGCAAUAUUACGUGCC | -2.64 ± 0.23 | -1.67 ± 0.2
5 | CGUAAGCAAUAUUACGUGUU | -2.37 ± 0.1 | -3.63 ± 0.2
6 | CGUAAGCAAUAUUACGUUAU | -4.56 ± 0.26 | -1.45 ± 0.19
7 | CGUAAGCAAUAUUACGUUCG | -0.989 ± 0.056 | -0.453 ± 0.078
8 | CGUAAGCAAUAUUACGUUGA | -3.23 ± 0.19 | -2.58 ± 0.18
9 | CGUCAGCAAUAUUACGACUA | -0.58 ± 0.13 | 0.632 ± 0.18
10 | CGUCAGCAAUAUUACGACUC | -0.282 ± 0.11 | 0.339 ± 0.16
11 | CGUCAGCAAUAUUACGCCCG | -1.23 ± 0.17 | -0.0073 ± 0.24
12 | CGUCAGCAAUAUUACGCCUC |  | -3.1 ± 0.34
13 | CGUCAGCAAUAUUACGCCUG | -0.469 ± 0.099 | 0.582 ± 0.12
14 | CGUCAGCAAUAUUACGCGAC | -2.57 ± 0.49 | 
15 | CGUCAGCAAUAUUACGCGAU | -3.23 ± 0.29 | -1.76 ± 0.42
16 | CGUCAGCAAUAUUACGCGUA | -1.93 ± 0.18 | -0.985 ± 0.12
17 | CGUCAGCAAUAUUACGCUGA | -2.3 ± 0.3 | -1.89 ± 0.33
18 | CGUCAGCAAUAUUACGGACA | -0.0785 ± 0.094 | 0.394 ± 0.15
19 | CGUCAGCAAUAUUACGGAUU | -1.35 ± 0.1 | -0.245 ± 0.1
20 | CGUCAGCAAUAUUACGGUAC | -3.64 ± 0.31 | -1.89 ± 0.27
21 | CGUCAGCAAUAUUACGUGCU | -3.04 ± 0.26 | -2.39 ± 0.27
22 | CGUCAGCAAUAUUACGUGUA | -3.11 ± 0.099 | -1.66 ± 0.083
23 | CGUCAGCAAUAUUACGUUGA | -3.04 ± 0.26 | -2.26 ± 0.19
24 | CGUCAGCAAUAUUACGUUGC | -3.95 ± 0.26 | -2.89 ± 0.18
25 | CGUGAGCAAUAUUACGAAUU |  | -0.866 ± 0.17

Row | Sequence | self-splicing fitness (ln) (30 °C) | self-splicing fitness (ln) (37 °C)
26 | CGUGAGCAAUAUUACGACUA | -2.94 ± 0.47 | -1.94 ± 0.36
27 | CGUGAGCAAUAUUACGAGUA |  | -0.918 ± 0.47
28 | CGUGAGCAAUAUUACGCCAA | -3.41 ± 0.36 | 
29 | CGUGAGCAAUAUUACGCGUA |  | -1.86 ± 0.47
30 | CGUGAGCAAUAUUACGCGUC | -3.12 ± 0.31 | 
31 | CGUGAGCAAUAUUACGCUCA | -2.84 ± 0.31 | 
32 | CGUGAGCAAUAUUACGCUUU | -2.54 ± 0.35 | -1.98 ± 0.28
33 | CGUGAGCAAUAUUACGGAAA | -2.27 ± 0.3 | -1.14 ± 0.27
34 | CGUGAGCAAUAUUACGGAUA | -3.1 ± 0.3 | -2.71 ± 0.34
35 | CGUGAGCAAUAUUACGGUCG | -1.17 ± 0.083 | -0.688 ± 0.13
36 | CGUGAGCAAUAUUACGUACA | -1.46 ± 0.053 | -0.707 ± 0.059
37 | CGUGAGCAAUAUUACGUAGG | -1.12 ± 0.089 | -1.39 ± 0.12
38 | CGUGAGCAAUAUUACGUGAC | -4.11 ± 0.36 | 
39 | CGUGAGCAAUAUUACGUGUC | -3 ± 0.4 | -3.04 ± 0.43
40 | CGUGAGCAAUAUUACGUGUG | -1.39 ± 0.1 | -0.501 ± 0.1
41 | CGUGAGCAAUAUUACGUUUG | -2.04 ± 0.12 | -1.5 ± 0.21
42 | CGUUAGCAAUAUUACGAAGA | -2.24 ± 0.29 | 
43 | CGUUAGCAAUAUUACGAAUA | -1.54 ± 0.17 | -1.69 ± 0.36
44 | CGUUAGCAAUAUUACGACCC | -2.92 ± 0.43 | 
45 | CGUUAGCAAUAUUACGAGGG | -3.63 ± 0.47 | -0.739 ± 0.19
46 | CGUUAGCAAUAUUACGCAAG | -1.97 ± 0.13 | -1.18 ± 0.14
47 | CGUUAGCAAUAUUACGCCUG | -0.175 ± 0.085 | 0.664 ± 0.1
48 | CGUUAGCAAUAUUACGCGCA | -1.01 ± 0.29 | -0.131 ± 0.47
49 | CGUUAGCAAUAUUACGCUUU |  | -2.41 ± 0.3
50 | CGUUAGCAAUAUUACGGCCU | -1.53 ± 0.15 | -1.26 ± 0.23

Row | Sequence | self-splicing fitness (ln) (30 °C) | self-splicing fitness (ln) (37 °C)
51 | CGUUAGCAAUAUUACGGGAU |  | -2.25 ± 0.26
52 | CGUUAGCAAUAUUACGGGGU | -3.72 ± 0.24 | -2.03 ± 0.35
53 | CGUUAGCAAUAUUACGGUCG | -1.03 ± 0.11 | 0.369 ± 0.12
54 | CGUUAGCAAUAUUACGUCGU |  | -1.81 ± 0.33
55 | CGUUAGCAAUAUUACGUGGC | -2.5 ± 0.25 | -2.75 ± 0.25
56 | CGUUAGCAAUAUUACGUGUG | -0.838 ± 0.062 | -1.12 ± 0.08
57 | CGUUAGCAAUAUUACGUUGG | -1.45 ± 0.091 | -0.573 ± 0.12
58 | CUAAAGCAAUAUUACGAAAG | 0.0922 ± 0.092 | 0.21 ± 0.12
59 | CUAAAGCAAUAUUACGACUA | -2.79 ± 0.21 | -1.78 ± 0.17
60 | CUAAAGCAAUAUUACGAGGA | -4.32 ± 0.29 | -1.62 ± 0.27
61 | CUAAAGCAAUAUUACGAUGG | -0.196 ± 0.058 | 0.0185 ± 0.091
62 | CUAAAGCAAUAUUACGAUUC | -3.33 ± 0.31 | -3.73 ± 0.46
63 | CUAAAGCAAUAUUACGCAAU | -3.94 ± 0.21 | -2.97 ± 0.24
64 | CUAAAGCAAUAUUACGCCUG | 0.183 ± 0.087 | 0.129 ± 0.099
65 | CUAAAGCAAUAUUACGCCUU | -3.79 ± 0.26 | -1.25 ± 0.22
66 | CUAAAGCAAUAUUACGCGAU | -0.384 ± 0.051 | 0.349 ± 0.062
67 | CUAAAGCAAUAUUACGCGGA | -3.85 ± 0.3 | -3.62 ± 0.24
68 | CUAAAGCAAUAUUACGCGGU | -1.44 ± 0.097 | -1.2 ± 0.094
69 | CUAAAGCAAUAUUACGGACA | -3.1 ± 0.17 | -2.34 ± 0.21
70 | CUAAAGCAAUAUUACGGACG | 0.255 ± 0.084 | -0.189 ± 0.092
71 | CUAAAGCAAUAUUACGGCGA | -3.59 ± 0.25 | -1.96 ± 0.19
72 | CUAAAGCAAUAUUACGGCGU | -3.68 ± 0.23 | -3.05 ± 0.35
73 | CUAAAGCAAUAUUACGGGAU | -1.86 ± 0.087 | -0.984 ± 0.12
74 | CUAAAGCAAUAUUACGGGUC | -3.75 ± 0.21 | -3.33 ± 0.37
75 | CUAAAGCAAUAUUACGGUAA | -3.53 ± 0.15 | -2.36 ± 0.18

Row | Sequence | self-splicing fitness (ln) (30 °C) | self-splicing fitness (ln) (37 °C)
76 | CUAAAGCAAUAUUACGGUGA | -4.11 ± 0.2 | -1.6 ± 0.14
77 | CUAAAGCAAUAUUACGUACG | 0.59 ± 0.095 | 0.0866 ± 0.099
78 | CUAAAGCAAUAUUACGUAUU | -3.61 ± 0.19 | -2.17 ± 0.24
79 | CUAAAGCAAUAUUACGUCAU | -4.85 ± 0.31 | -2.78 ± 0.23
80 | CUAAAGCAAUAUUACGUCCA | -3.01 ± 0.19 | -2.79 ± 0.31
81 | CUAAAGCAAUAUUACGUCCG | 0.264 ± 0.12 | 0.68 ± 0.16
82 | CUAAAGCAAUAUUACGUCGU | -4.09 ± 0.2 | -2.88 ± 0.22
83 | CUAAAGCAAUAUUACGUGAG | -0.0713 ± 0.047 | -0.2 ± 0.066
84 | CUAAAGCAAUAUUACGUGAU | -1.35 ± 0.07 | -1.14 ± 0.11
85 | CUAAAGCAAUAUUACGUGCU | -2.89 ± 0.14 | -2.75 ± 0.25
86 | CUAAAGCAAUAUUACGUGGG | -2.9 ± 0.11 | -1.09 ± 0.092
87 | CUAAAGCAAUAUUACGUUCA | -3.24 ± 0.12 | -1.56 ± 0.15
88 | CUAAAGCAAUAUUACGUUCC | -3.89 ± 0.4 | -2.25 ± 0.41
89 | CUACAGCAAUAUUACGAAAA | -2.2 ± 0.21 | -1.92 ± 0.21
90 | CUACAGCAAUAUUACGACAG | -0.672 ± 0.088 | 0.096 ± 0.11
91 | CUACAGCAAUAUUACGACUC | -4.35 ± 0.22 | -2.7 ± 0.24
92 | CUACAGCAAUAUUACGAUCC | -4.14 ± 0.36 | -1.44 ± 0.26
93 | CUACAGCAAUAUUACGAUCG | -0.0619 ± 0.061 | 0.736 ± 0.085
94 | CUACAGCAAUAUUACGCAAA | -3.36 ± 0.24 | -3.49 ± 0.25
95 | CUACAGCAAUAUUACGCAGA | -3.97 ± 0.28 | -3.07 ± 0.22
96 | CUACAGCAAUAUUACGCAUC | -3.65 ± 0.27 | -1.5 ± 0.16
97 | CUACAGCAAUAUUACGCAUG | -1.48 ± 0.086 | -1.44 ± 0.079
98 | CUACAGCAAUAUUACGCAUU |  | -2.83 ± 0.25
99 | CUACAGCAAUAUUACGCCAG | -1.3 ± 0.13 | -0.891 ± 0.16
100 | CUACAGCAAUAUUACGGAUA | -3.45 ± 0.14 | -3.2 ± 0.16
